Article PMC7060403 (Journal of molecular biology, 2019)

T1: RavP-N (N-terminal region of the rabies virus phosphoprotein, residues 1-152) (rabies virus, UniProt P22363 1-152)
T1 sequence: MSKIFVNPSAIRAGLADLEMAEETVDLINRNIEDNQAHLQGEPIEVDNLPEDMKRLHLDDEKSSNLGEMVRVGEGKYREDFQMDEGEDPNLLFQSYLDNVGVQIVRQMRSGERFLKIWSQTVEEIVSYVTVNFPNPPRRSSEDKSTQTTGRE

B1: full-length rabies virus phosphoprotein (RavP-FL, residues 1-297) (natural protein)
chain: MSKIFVNPSAIRAGLADLEMAEETVDLINRNIEDNQAHLQGEPIEVDNLPEDMKRLHLDDEKSSNLGEMVRVGEGKYREDFQMDEGEDPNLLFQSYLDNVGVQIVRQMRSGERFLKIWSQTVEEIVSYVTVNFPNPPRRSSEDKSTQTTGRELKKETTSAFSQRESQPSKARMVAQVAPGPPALEWSATNEEDDLSVEAEIAHQIAESFSKKYKFPSRSSGIFLYNFEQLKMNLDDIVKEAKNVPGVTRLAHDGSKIPLRCVLGWVALANSKKFQLLVEADKLSKIMQDDLNRYTSC

Legend:
SEC-MALS = molecular target: the molecule itself; test: SEC-MALS
[1] = molecular target: B1; test: ITC
[2] = molecular target: T1, RavP-N (N-terminal region of the rabies …); test: ITC

| Binder | stoichiometry N (SEC-MALS) | Kd [1] [nM] | stoichiometry N [1] | Kd [2] [nM] |
| --- | --- | --- | --- | --- |
| B1 | 2 | – | – | – |
| LC8 from Drosophila melanogaster (natural protein, UniProt Q24117 1-89, looked up) MSDRKAVIKNADMSEEMQQDAVDCATQALEKYNIEKDIAAYIKKEFDKKYNPTWHCIVGRNFGSYVTHETRHFIYFYLGQVAILLFKSG | – | 82 | 1 | 30 |
